Publication doi:10.1101/370387 (bioRxiv, 2018)
Residue numbers refer to the chain shown, from its start. Like-named read-outs stand apart in the source and are kept apart here. No end group written: not given here.

B1: phospholamban Asn27-Ala mutant (canine PLN sequence), super-inhibitory pentameric form (natural protein, UniProt P61012 1-52, looked up)
chain: MDKVQYLTRSAIRRASTIEMPQQARQALQNLFINFCLILICLLLICIIVMLL
modifications: cysteine pairing not given here; also: pentameric form
B2: phospholamban Lys27-Ala mutant (human PLN sequence), super-inhibitory pentameric form (natural protein, UniProt P26678 1-52, looked up)
chain: B1 chain with D2E
modifications: cysteine pairing not given here; also: pentameric form

Assays:
cryo-EM structure [1] = target: the molecule itself; assay: cryo-EM structure
cryo-EM structure [2] = target: the molecule itself; assay: cryo-EM structure; remark: listed apart in the source

Protein	stoichiometry N (cryo-EM structure [1])	stoichiometry N (cryo-EM structure [2])
B1	4	–
B2	–	5
